Molecular target: human C1q (human, UniProt P02745 23-245; P02746 28-253; P02747 29-245)
Test: cell-based or functional assay

human C1q, sequence (P02745 23-245 limits assumed, chain 1 of 3): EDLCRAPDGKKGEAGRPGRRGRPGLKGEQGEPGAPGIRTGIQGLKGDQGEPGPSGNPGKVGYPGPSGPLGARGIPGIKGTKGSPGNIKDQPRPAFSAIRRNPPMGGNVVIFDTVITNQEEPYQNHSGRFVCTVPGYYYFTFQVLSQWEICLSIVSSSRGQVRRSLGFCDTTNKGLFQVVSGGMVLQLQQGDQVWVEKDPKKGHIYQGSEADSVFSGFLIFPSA
human C1q, sequence (P02746 28-253 limits assumed, chain 2 of 3): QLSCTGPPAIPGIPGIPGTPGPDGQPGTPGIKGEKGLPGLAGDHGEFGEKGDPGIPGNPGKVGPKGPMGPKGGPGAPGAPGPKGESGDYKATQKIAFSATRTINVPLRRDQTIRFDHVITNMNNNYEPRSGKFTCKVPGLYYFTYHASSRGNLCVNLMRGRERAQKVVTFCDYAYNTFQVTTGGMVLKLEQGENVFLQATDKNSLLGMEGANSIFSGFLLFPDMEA
human C1q, sequence (P02747 29-245 limits assumed, chain 3 of 3): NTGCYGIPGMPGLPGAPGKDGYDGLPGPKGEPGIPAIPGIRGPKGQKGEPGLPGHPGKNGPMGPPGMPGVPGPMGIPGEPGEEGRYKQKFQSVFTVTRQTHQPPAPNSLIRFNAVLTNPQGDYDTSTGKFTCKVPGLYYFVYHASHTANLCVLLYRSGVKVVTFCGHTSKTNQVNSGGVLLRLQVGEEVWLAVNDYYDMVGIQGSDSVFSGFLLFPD

IC50 of block of the classical pathway (Weislab ELISA, IgM-coated wells, C5b-9 detection): ≤ 0.3 µg/mL
B1: FabA (Fab)
heavy: QVQLVQSGAELKKPGASVKVSCKSSGYHFTSYWMHWVKQAPGQGLEWIGVIHPNSGSINYNEKFESRVTITVDKSTSTAYMELSSLRSEDTAVYYCAGERDSTEVLPMDYWGQGTTVTVSSASTKGPSVFPLAPSSKSTSGGTAALGCLVKDYFPEPVTVSWNSGALTSGVHTFPAVLQSSGLYSLSSVVTVPSSSLGTQTYICNVNHKPSNTKVDKKVEPKSCDKTHT
light: DVQITQSPSSLSASLGERATINCRASKSINKYLAWYQQKPGKAPKLLIYSGSTLQSGIPARFSGSGSGTDFTLTISSLEPEDFAMYYCQQHNEYPLTFGQGTKLEIKRTVAAPSVFIFPPSDEQLKSGTASVVCLLNNFYPREAKVQWKVDNALQSGNSQESVTEQDSKDSTYSLSSTLTLSKADYEKHKVYACEVTHQGLSSPVTKSFNRGEC
